Target: TH-A/New Caledonia/20/1999_2GCN_dn5b (203L/210D/212V/216I) (influenza A virus A/New …)
Assay: in vitro nanoparticle assembly, purified nanoparticles seen by cryo-EM

B1: I53_dn5A.1 (other)
chain: MGKYDGSKLRIGILHARGNAEIILALVLGALKRLQEFGVKRENIIIETVPGSFELPYGSKLFVEKQKRLGKPLDAIIPIGVLIRGSTPHFDYIADSTTHQLMKLNFELGIPVIFGVITADTDEQAEARAGLIEGKMHNHGEDWGAAAVEMATKFN
B1: binds.
